Measurements taken from US20080081903A1, “METHOD FOR SCREENING TRANSCRIPTIONAL COREGULATORY PROTEINS OF TRANSCRIPTION FACTORS, AND ANDROGEN RECEPTOR TRANSCRIPTIONAL COREGULATORY PROTEINS AS TARGETS FOR ANDROGEN RECEPTOR-DEPENDENT DISEASES” (NEW YORK UNIVERSITY, priority 2001, published 2008).

Target: T1, androgen receptor (AR) N-terminus (18-500) (Rattus norvegicus, UniProt P15207)
T1 construct: receptor residues 18 through 500 (using the rat androgen receptor number scheme); expressed in transfected cells; host or cells: Saccharomyces cerevisiae EGY188
T1 sequence (P15207 18-500): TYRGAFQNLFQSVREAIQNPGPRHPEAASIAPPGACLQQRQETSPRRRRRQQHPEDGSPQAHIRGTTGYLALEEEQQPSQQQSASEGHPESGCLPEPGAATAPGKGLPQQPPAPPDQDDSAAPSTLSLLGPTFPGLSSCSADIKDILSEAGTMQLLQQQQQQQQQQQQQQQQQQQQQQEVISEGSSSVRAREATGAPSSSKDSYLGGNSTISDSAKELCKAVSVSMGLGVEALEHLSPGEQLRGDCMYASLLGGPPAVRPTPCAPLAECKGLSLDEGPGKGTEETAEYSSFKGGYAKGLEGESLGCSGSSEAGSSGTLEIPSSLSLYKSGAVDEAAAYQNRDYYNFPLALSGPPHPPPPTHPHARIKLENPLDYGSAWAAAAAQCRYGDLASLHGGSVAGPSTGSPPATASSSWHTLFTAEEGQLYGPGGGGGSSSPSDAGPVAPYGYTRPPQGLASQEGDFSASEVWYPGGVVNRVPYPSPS
Assay: Modified yeast two-hybrid, qualitative plate beta-galactosidase assay
Assay type: binding
Description: The modified yeast two hybrid assay is described in Hittelman et al., 1999. EGY188 was transformed by the lithium acetate method with (i) pJG4-5:AR18-500, (ii) pEG202:LNCaP cell cDNA library and (iii) pJK103, a β-galactosidase reporter gene with a single LexA operator. Potential interacting proteins were selected by plating the cDNA library expressing transformants onto galactose plates lacking leucine and containing X-gal.
To analyze the specificity of ART interaction, the capacity of the strongest androgen receptor N-terminus-interacting factors to associate with a panel of transcriptional regulatory proteins in the modified yeast two-hybrid assay was examined. ART-5, ART-27, and ART-37 were tested for interaction with Sp1A (Sp183-262), Sp1B (Sp1263-524) the cyclic AMP response element binding protein (CREB3-296), TBP-associated factor 130 (TAFII130270-700), the glucocorticoid receptor AF1 (GR107-237), and the steroid receptor coactivator-1 (SRC-1374-800).
The strength of interaction was determined by a qualitative plate beta-galactosidase assay after a 24 hour incubation on galactose X-gal plates at 301 C.
ART-27 derivatives containing amino acids 1-45, 1-67, 1-127, 46-157, 68-157, 127-157, 1-157, and 1-45/127-157 were expressed as fusion proteins with LexA. These derivatives were tested for their ability to interact with the androgen receptor N-terminus (AR18-500). The strength of interaction was determined by a qualitative plate beta-galactosidase assay after a 24 hour incubation on galactose X-gal plates at 301 C.

interaction with androgen receptor N-terminus (24 hour incubation on galactose X-gal plates): interacts exclusively
specificity of interaction among panel of transcriptional regulatory factors (AR N-terminus, AR LBD, Sp1A, Sp1B, CREB, TAFII130, GR AF1, SRC-1): interacts rather specifically
B1: ART-5: Androgen Receptor Trapped protein, SEQ ID NO:4, unknown function, represented in EST database (protein)
chain: MHNPDGSASPTADPGSELQTLGQAARRPPPPRAGHDAPRRTRPSARKPLSCFSRRPMPTREPPKTRGSRGHLHTHPPGPGPPLQGLAPRGLKTSAPRPPCQPQPGPHKAKTKKIVFEDELLSQALLGAKKPIGAIPKGHKPRPHPVPDYELKYPPVSSERERSRYVAVFQDQYGEFLELQHEVGCAQAKLRQLEALLSSLPPPQSQKEAQVAARVWREFEMKRMDPGFLDKQARCHYLKGKLRHLKTQIQKFDDQGDSEGSVYF
modifications: Human
